This assay addresses human recombinant IR-A extracellular domain (Met 1-Lys 944) with C-terminal polyhistidine tag (human, UniProt P06213-2 28-944). Nature of the assay: ELISA.

B1: human recombinant decorin protein core (natural protein, UniProt P07585 31-359, looked up)
chain: DEASGIGPEVPDDRDFEPSLGPVCPFRCQCHLRVVQCSDLGLDKVPKDLPPDTTLLDLQNNKITEIKDGDFKNLKNLHALILVNNKISKVSPGAFTPLVKLERLYLSKNQLKELPEKMPKTLQELRAHENEITKVRKVTFNGLNQMIVIELGTNPLKSSGIENGAFQGMKKLSYIRIADTNITSIPQGLPPSLTELHLDGNKISRVDAASLKGLNNLAKLGLSFNSISAVDNGSLANTPHLRELHLDNNKLTRVPGGLAEHKYIQVVYLHNNNISVVGSSDFCPPGHNTKKASYSGVSLFSNPVQYWEIQPSTFRCVYVRSAIQLGNYK
The term Kd denotes the equilibrium constant for the complex coming apart. As for B1, the Kd amounted to 7.8 nM.

(Values after PMC4039619 (Matrix biology : journal of the International Society for …, 2014).)
